Source: patent publication US20150259684

Molecular target: T1, NM Cas9 (Neisseria meningitidis) (UniProt C9X1G5)
T1 sequence: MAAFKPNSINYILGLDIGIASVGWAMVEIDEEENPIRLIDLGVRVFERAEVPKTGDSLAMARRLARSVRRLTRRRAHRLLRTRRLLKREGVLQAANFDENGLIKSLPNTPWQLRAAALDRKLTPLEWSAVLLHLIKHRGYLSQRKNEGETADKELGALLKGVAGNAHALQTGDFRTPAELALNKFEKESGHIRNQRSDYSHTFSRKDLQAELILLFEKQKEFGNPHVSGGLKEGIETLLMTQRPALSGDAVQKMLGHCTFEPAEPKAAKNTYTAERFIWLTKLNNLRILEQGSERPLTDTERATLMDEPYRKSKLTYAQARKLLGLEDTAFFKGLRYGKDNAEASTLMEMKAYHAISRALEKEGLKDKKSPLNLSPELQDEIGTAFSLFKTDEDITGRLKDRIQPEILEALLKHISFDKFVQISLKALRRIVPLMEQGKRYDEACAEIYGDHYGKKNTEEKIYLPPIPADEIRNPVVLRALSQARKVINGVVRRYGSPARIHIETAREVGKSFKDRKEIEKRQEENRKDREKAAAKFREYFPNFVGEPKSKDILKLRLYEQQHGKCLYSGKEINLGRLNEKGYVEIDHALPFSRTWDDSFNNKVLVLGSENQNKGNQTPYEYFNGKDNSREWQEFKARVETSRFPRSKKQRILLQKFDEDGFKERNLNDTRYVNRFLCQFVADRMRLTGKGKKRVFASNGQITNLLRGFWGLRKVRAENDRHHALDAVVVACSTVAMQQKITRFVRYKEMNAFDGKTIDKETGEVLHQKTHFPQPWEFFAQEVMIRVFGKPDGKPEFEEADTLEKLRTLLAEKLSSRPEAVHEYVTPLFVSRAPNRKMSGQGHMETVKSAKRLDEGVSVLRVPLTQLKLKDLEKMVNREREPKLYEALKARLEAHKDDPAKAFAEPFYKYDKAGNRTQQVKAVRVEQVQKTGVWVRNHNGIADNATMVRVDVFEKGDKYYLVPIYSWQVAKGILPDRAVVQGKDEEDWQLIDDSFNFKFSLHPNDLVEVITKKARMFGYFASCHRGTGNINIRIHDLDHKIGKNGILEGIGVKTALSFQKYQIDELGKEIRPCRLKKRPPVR
Assay: cell_activity
Settings: PAM NCCAGGTN depleted only 4-fold; protospacer for this value not stated

UACCAUCUCAAGCUUGUUGAGUUGUAGCUCCCUUUCUCAUUUCGCAGUGCUACAAU / TACCATCTCAAGCTTGTTGANCCAGGTN / NACCTGGNTCAACAAGCTTGAGATGGTA
activity (fold depletion): 4
